From PMC8877407
Values joined by “and” are separate entries in the source; they are usually repeats but may differ in a detail not shown here. Equal values may be shown once.

Molecular target: recombinant L. infantum GDP-mannose pyrophosphorylase (LiGDP-MP) (Leishmania infantum)
Experiment: SEC; Superdex 200 10/300 GL, 50 mM Tris-HCl pH 7.5, 1 M NaCl, 1 mM DTT, 10% glycerol; concentrated Ni-NTA fractions loaded; sizes estimated from elution volumes against standard proteins

Substance: recombinant L. infantum GDP-mannose pyrophosphorylase (LiGDP-MP) (enzyme)
- stoichiometry N: 6 and 3
